From patent US20260183437A1, “VHH ANTIBODY CONJUGATES WITH HETEROARYL CHELATORS” (ABDERA THERAPEUTICS INC., priority 2022, published 2026)

Experiments:
[1] = biological target: T1, hFcRn (Homo sapiens, UniProt P55899); experiment: FcRn affinity by biolayer interferometry (Octet RED96e), pH 6.0; conditions: pH 6.0, 2:1 binding model
T1 construct: purchased Sino Biological CT071-H27H-B
Description: FcRn affinity of VHH-Fc can generally be used to predict the half-life of antibody serum clearance. (See, e.g., Datta-Mannan A et al. “FcRn affinity-pharmacokinetic relationship of five human IgG4 antibodies engineered for improved in vitro FcRn binding properties in cynomolgus monkeys.” Drug Metab Dispos. 2012 August; 40(8):1545-55). Briefly, 10 nM of biotinylated hFcRn (Sino Biological, Cat #: CT071-H27H-B) was captured with the SA biosensor using Octet RED96e (Fortebio). The hFcRN coated biosensor was dipped into the sample solutions in sodium phosphate buffer (100 mM Na2HPO4, 150 mM NaCl w/ 0.05% Tween-20, pH 6.0) with serial concentrations of tested antibodies and the association measured. The dissociation was measured by dipping the biosensors into sodium phosphate buffer without antibody. The KD values were determined using Octet Data Analysis HT 11.0 software. 2:1 (Heterogeneous Ligand) binding model was used in analysis. […] Changes in FcRn affinity were consistent across targets. Constructs with Fc Effector mutation only have no impact on FcRn affinity.

[2] = biological target: T2, human insulin (Homo sapiens, UniProt P01308); experiment: Polyreactivity ELISA; assay type: binding; conditions: 10 μg/mL VHH-Fc; signal normalized to non-coated well
T2 construct: 5 μg/mL of human insulin (SigmaAlrich, Cat #: I9278); purchased SigmaAlrich I9278
T2 sequence (P01308 25-54 limits assumed): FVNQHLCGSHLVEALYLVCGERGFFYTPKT
T2 sequence (P01308 90-110 limits assumed): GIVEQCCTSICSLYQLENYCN
Description: Polyreactivity of VHH-Fcs against negatively charged biomolecules was determined by ELISA (As in Avery et al., “Establishing in vitro in vivo correlations to screen monoclonal antibodies for physicochemical properties related to favorable human pharmacokinetics.” MAbs. 2018 February/March; 10(2):244-255). Briefly, ELISA plate was coated with 5 μg/mL of human insulin (SigmaAlrich, Cat #: I9278) and 10 μg/mL of double stranded DNA (SigmaAlrich, Cat #: D1626-250MG) overnight. The plate was blocked with ELISA buffer (PBS, 1 mM EDTA, 0.05% Tween-20, pH 7.4). 10 μg/mL of test VHH-Fcs was loaded onto the plates in quadruplicates and incubated for 2 hours. Goat anti-human Fc(0.01 ug/ml) conjugated with HRP was then added and the plate incubated for 1 hour. The signal was developed with TMB and A450 absorbance was measured with Synergy Neo2 plate reader. The signal was normalized with the signal of non-coated well for each antibody tested.

[3] = Pharmacokinetics of VHH-Fc variants in Tg32 (humanized FcRn) mice; assay type: in vivo; conditions: IV 3 mg/kg, HER2 VHH-Fc study (Table 6)
Description: Twenty eight (28) 8 week old male B6. Cg-Fcgrt^tm1Der Tg(FCGRT)32Dcr/DcrJ (Tg32 hom, JAX stock #014565) mice were distributed into 7 groups with 4 mice per group as outlined in the table. […] (See, e.g., Avery L B et al. “Utility of a human FcRn transgenic mouse model in drug discovery for early assessment and prediction of human pharmacokinetics of monoclonal antibodies.” MAbs. 2016 August-September; 8(6):1064-78). On Day 0, body weights were measured and test articles were IV administered to all mice at 3 mg/kg and 5 mL/kg. 25 μL blood samples were collected from each mouse at time intervals. The blood samples were collected into 1 μL K3EDTA, processed to plasma, diluted 1/10 in 50% glycerol in PBS, transferred into specialized 96 well storage plates, and stored at −20° C. All plasma samples were assessed via a hIgG ELISA chosen for its high sensitivity for all seven test articles.

[4] = system: BT-474 tumor; experiment: Biodistribution of ^111In radiolabeled VHH-Fcs, SPECT/CT imaging; assay type: in vivo, mice; conditions: labeled with ^111In, compared with H101
Description: The objective of this study was to observe the biodistribution of ^111In radiolabeled SPECT/CT imaging across select test articles in BT-474 tumor (breast cancer cells) bearing nude mice. The following articles were tested at a CAR of about 4: ^111In-H101-4-1, ^111In-H1014-2, ^111In-H105-4-2, ^111In-H107-4-2, and ^111In-H108-4-2. FIGS. 9A, 9B, and 9C show tissue accumulation over time for ^111In-H101-SL, ^111In-H101-4-2, and ^111In-H108-4-2. […] FIGS. 10A, 10B, and 10C show tumor:tissue ratios. In each case, the tumor:tissue ratios were greater than 5, indicating increased tumor accumulation and better profiles used for determining safety (e.g., as compared lower tumor:tissue ratios). […] In each case, the VHH-Fc variants show advantageous targeting of tumor tissue.

[5] = biological target: T3, FcγRIIb/c (Homo sapiens, UniProt P31994); experiment: FcγR affinity by biolayer interferometry (Octet Red96e); assay type: binding
T3 construct: purchased Acro Biosystems
T3 sequence (P31994 43-310): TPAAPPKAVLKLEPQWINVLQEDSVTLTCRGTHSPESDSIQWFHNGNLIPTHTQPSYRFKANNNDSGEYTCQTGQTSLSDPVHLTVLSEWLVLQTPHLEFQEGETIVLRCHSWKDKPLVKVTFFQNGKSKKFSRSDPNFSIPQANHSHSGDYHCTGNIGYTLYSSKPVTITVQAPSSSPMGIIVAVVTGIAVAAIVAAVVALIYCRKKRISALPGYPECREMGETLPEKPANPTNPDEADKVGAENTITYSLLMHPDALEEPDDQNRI
Description: (§1) VHH-Fcs were also tested for affinity to FcγRs by biolayer interferometry using the Octet Red96e platform. Each cycle is performed with orbital shake speed of 1,000 rpm. Streptavidin (SA) biosensors (Sartorius 18-5019) were rehydrated for 10 mins using kinetics buffer (PBS+0.1% BSA+0.02% Tween-20). Biotinylated-FcγRs (Acro Biosystems) were then loaded for 40-100 s onto SA biosensors at concentrations ranging between 1-5 μg/mL diluted in PBS. VHH-Fcs were serially diluted 1:2 in sample buffer (PBS+0.02% Tween-20) with starting concentrations ranging between 5000 nM to 37.5 nM. Loaded biosensors were then associated with VHH-Fcs for 60-120 s. VHH-Fc dissociation was measured for 30-900 s in sample buffer. Bound VHH-Fcs were then removed using 3 cycles of 5 s regeneration buffer (150 mM NaCl, 300 mM Sodium Citrate) and 5 s sample buffer. The data was analyzed either using a globally-fitted 1:1 Langmuir binding model (FcγRI) or steady state analysis (Octet software version HT v11.1).

[6] = biological target: T4, FcγRIIa (R167) (Homo sapiens, UniProt P12318, H167R); experiment: as above; assay type: binding
T4 construct: purchased Acro Biosystems
T4 sequence (P12318 36-218 H167R limits assumed): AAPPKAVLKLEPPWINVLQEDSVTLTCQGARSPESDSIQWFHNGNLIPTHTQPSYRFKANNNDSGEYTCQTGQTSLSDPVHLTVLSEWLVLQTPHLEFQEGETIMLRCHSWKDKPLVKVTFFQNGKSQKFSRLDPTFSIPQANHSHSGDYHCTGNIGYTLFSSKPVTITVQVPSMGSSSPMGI
Description: as §1

[7] = biological target: T5, FcγRI (Homo sapiens, UniProt P12314); experiment: as above; assay type: binding
T5 construct: purchased Acro Biosystems
T5 sequence (P12314 16-374): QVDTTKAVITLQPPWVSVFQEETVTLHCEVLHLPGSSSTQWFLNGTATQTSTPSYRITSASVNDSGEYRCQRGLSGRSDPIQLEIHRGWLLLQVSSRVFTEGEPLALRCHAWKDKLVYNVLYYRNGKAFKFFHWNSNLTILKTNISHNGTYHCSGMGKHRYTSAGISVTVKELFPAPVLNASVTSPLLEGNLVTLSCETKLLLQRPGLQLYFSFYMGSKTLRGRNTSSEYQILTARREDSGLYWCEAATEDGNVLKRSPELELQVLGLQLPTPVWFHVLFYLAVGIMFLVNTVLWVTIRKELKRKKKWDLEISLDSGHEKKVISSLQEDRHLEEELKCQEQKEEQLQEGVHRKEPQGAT
Description: as §1

T1 sequence (P55899 24-297 limits assumed): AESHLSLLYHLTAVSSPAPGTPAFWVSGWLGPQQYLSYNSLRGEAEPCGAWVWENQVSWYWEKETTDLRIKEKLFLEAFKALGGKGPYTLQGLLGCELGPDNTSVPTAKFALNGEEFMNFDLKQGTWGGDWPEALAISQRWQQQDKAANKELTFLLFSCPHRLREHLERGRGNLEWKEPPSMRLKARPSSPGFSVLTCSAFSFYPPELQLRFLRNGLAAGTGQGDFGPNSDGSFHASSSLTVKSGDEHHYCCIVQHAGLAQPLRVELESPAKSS
T1 sequence (P61769 21-119 partner): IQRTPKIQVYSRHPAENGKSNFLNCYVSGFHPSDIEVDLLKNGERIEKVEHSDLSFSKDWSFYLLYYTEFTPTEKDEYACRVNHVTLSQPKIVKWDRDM

Row | Substance | Kd [1] [nM] | Polyreactivity Assay Score, Insulin [2] | Clearance [3] [mL/day] | Cmax [3] [µg/mL] | Terminal Half-Life [3] [h] | KD (nM) to FcRn [1] | Whole body clearance [4] | FcγRIIb/c nM KD [5] | Kd [6] [nM] | Kd [7] [nM]
1 | H106: anti-HER2 VHH-Fc, FcRn mutant S254A [Compound H106] | 13 | 1.321 | 19.8 | 53.5 | 170 |  |  |  |  | 
2 | H107: anti-HER2 VHH-Fc, FcRn mutant H310A [Compound H107] |  | 1.306 | 304.4 | 62.4 | 9.84 | No binding | increased clearance |  |  | 
3 | H135: anti-HER2 VHH-Fc, H310A, Fc effector mutant AEASS [Compound H135] |  |  |  |  |  | No binding |  | weak | 1200 | 
4 | H133: anti-HER2 VHH-Fc, FcRn wt, Fc effector mutant AEASS [Compound H133] | 2.1 |  |  |  |  |  |  | weak | 2300 | 1
5 | H137: anti-HER2 VHH-Fc, H435Q, Fc effector mutant AEASS [Compound H137] |  |  |  |  |  | Weak |  | weak | 1200 | 
6 | H105: anti-HER2 VHH-Fc, FcRn mutant I253A [Compound H105] |  | 1.207 | 152.1 | 63.9 | 26.9 | Weak | increased clearance |  |  | 
7 | H109: anti-HER2 VHH-Fc, FcRn mutant Y463A (as printed) [Compound H109] | 13 | 1.244 | 18.2 | 52.2 | 166 |  |  |  |  | 
8 | H108: anti-HER2 VHH-Fc, FcRn mutant H435Q [Compound H108] |  | 1.420 | 117.5 | 46.6 | 37.7 | Weak | increased clearance |  |  | 
